The values that follow come from patent publication US9046519.

Assay [1] addresses human thyrotropin receptor (TSHR), wild type, full length (human) (UniProt P16473). In words: cell-based or functional assay.
The target in assay [2] is TSHR Arg255 to Asp (human) (UniProt P16473). Briefly: cell-based or functional assay.

Consider hMAb TSHR1 IgG (antibody), for which, in assay [1], the Cyclic AMP produced (fmol/cell well), hMAb TSHR1 IgG 1 ng/mL (fmol/cell well) was determined as 4860; the Cyclic AMP produced (fmol/cell well), hMAb TSHR1 IgG 10 ng/mL (fmol/cell well) was found to be 16200; the Cyclic AMP produced (fmol/cell well), hMAb TSHR1 IgG 100 ng/mL (fmol/cell well) stood at 15400; the Cyclic AMP produced (fmol/cell well), hMAb TSHR1 IgG 1 µg/mL (fmol/cell well) came out at 16300. In assay [2], this substance gave a Cyclic AMP produced (fmol/cell well), hMAb TSHR1 IgG 1 ng/mL (fmol/cell well) of 940; a Cyclic AMP produced (fmol/cell well), hMAb TSHR1 IgG 10 ng/mL (fmol/cell well) of 3160; a Cyclic AMP produced (fmol/cell well), hMAb TSHR1 IgG 100 ng/mL (fmol/cell well) of 5700; a Cyclic AMP produced (fmol/cell well), hMAb TSHR1 IgG 1 µg/mL (fmol/cell well) of 5030. In assay [2], this substance gave a Mutated/Wild type (%), hMAb TSHR1 IgG 1 ng/mL of 19%; a Mutated/Wild type (%), hMAb TSHR1 IgG 10 ng/mL of 19%; a Mutated/Wild type (%), hMAb TSHR1 IgG 100 ng/mL of 37%.
